In patent US20140087995A1 (published 2014):
Numbered stars: 1 amine (or outer) side, 2 acyl side, 3 side chain; on linkers, the order of the positions; unused ones are H or OH. Bridge positions count the residues as written; N and C are the ends. Side chains are listed from the residue outwards. Ends that are not written are not given here. * marks the point of attachment. C20 diacid = O=C(O)CCCCCCCCCCCCCCCCCCC(=O)*; γGlu = O=C(O)[C@H](CCC(=O)[*:2])N[*:1]; AEEA = NCCOCCOCC(=O)O

T1: human calcitonin receptor (human, UniProt P30988 25-474)
T1 sequence (looked up): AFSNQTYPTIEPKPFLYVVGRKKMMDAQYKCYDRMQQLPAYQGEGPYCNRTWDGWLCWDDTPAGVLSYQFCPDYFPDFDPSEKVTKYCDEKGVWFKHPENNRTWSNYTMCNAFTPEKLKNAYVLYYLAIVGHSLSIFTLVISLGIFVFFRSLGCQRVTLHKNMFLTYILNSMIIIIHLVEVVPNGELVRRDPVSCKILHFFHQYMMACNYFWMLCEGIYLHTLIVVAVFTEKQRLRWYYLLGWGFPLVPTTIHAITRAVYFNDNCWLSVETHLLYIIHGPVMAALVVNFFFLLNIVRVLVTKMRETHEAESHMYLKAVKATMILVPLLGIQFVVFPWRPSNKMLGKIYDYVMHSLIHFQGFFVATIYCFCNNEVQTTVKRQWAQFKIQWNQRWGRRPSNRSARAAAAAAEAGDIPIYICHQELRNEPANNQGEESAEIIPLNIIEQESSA

T2: human amylin receptor (amylin 3(a) receptor: human calcitonin receptor with RAMP-3) (human, UniProt P30988 25-474; O60896 24-148)
T2 construct: whole, on cells; also called hAmylin-R; hAmylinR
T2 sequence (looked up) 1: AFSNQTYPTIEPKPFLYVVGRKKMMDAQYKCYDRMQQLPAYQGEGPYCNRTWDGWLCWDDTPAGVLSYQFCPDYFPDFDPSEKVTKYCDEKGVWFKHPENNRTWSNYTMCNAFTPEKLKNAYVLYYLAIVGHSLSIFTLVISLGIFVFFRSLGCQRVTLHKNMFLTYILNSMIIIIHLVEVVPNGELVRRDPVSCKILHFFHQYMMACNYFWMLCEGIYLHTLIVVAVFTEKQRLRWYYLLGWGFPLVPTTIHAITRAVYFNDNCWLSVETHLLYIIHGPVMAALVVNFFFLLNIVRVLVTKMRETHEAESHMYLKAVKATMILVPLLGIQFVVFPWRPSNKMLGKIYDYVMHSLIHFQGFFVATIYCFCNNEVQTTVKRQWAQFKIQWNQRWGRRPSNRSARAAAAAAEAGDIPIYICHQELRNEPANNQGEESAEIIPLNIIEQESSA
T2 sequence (looked up) 2: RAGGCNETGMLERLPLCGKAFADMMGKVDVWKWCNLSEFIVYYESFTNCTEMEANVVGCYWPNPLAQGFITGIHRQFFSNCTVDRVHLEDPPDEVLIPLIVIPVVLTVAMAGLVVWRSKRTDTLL


Columns and labels:
[1] = molecular target: T1, human calcitonin receptor; test: cell-based or functional assay
[2] = molecular target: T2, human amylin receptor (amylin 3(a) …); test: SPA displacement of 125I-rat amylin, hAmylin 3(a) receptor membranes
In short: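 SPA beads + BHK amylin 3(a)/CRE-luc membranes, 35 ng/μL final; buffer 50 mM Hepes pH 7.4, 1 mM CaCl2, 5 mM MgCl₂, 0.1% OA, 0.02% Tween20. 120 min, 25° C, shaken; scintillation count. IC₅₀ by one-site binding competition fit, taken as receptor affinity.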

Row | Binder | hCTR funct. EC50 [1] [pM] | IC50 [2] [pM]
1 | K([γGlu-γGlu-C20 diacid])CNTATCATQRLADFLRHSSPNFGAIPSSTNVGSRTY-NH2 (disulfide 2-7; N-terminus assumed; SMILES CC[C@H](C)[C@H](NC(=O)[C@H](C)NC(=O)CNC(=O)[C@H](Cc1ccccc1)NC(=O)[C@H](CC(N)=O)NC(=O)[C@@H]1CCCN1C(=O)[C@H](CO)NC(=O)[C@H](CO)NC(=O)[C@H](Cc1c[nH]cn1)NC(=O)[C@H](CCCNC(=N)N)NC(=O)[C@H](CC(C)C)NC(=O)[C@H](Cc1ccccc1)NC(=O)[C@H](CC(=O)O)NC(=O)[C@H](C)NC(=O)[C@H](CC(C)C)NC(=O)[C@H](CCCNC(=N)N)NC(=O)[C@H](CCC(N)=O)NC(=O)[C@@H](NC(=O)[C@H](C)NC(=O)[C@@H]1CSSC[C@H](NC(=O)[C@@H](N)CCCCNC(=O)CC[C@H](NC(=O)CC[C@H](NC(=O)CCCCCCCCCCCCCCCCCCC(=O)O)C(=O)O)C(=O)O)C(=O)N[C@@H](CC(N)=O)C(=O)N[C@@H]([C@@H](C)O)C(=O)N[C@@H](C)C(=O)N[C@@H]([C@@H](C)O)C(=O)N1)[C@@H](C)O)C(=O)N1CCC[C@H]1C(=O)N[C@@H](CO)C(=O)N[C@@H](CO)C(=O)N[C@H](C(=O)N[C@@H](CC(N)=O)C(=O)N[C@H](C(=O)NCC(=O)N[C@@H](CO)C(=O)N[C@@H](CCCNC(=N)N)C(=O)N[C@H](C(=O)N[C@@H](Cc1ccc(O)cc1)C(N)=O)[C@@H](C)O)C(C)C)[C@@H](C)O, also called compound 52) | 14100 | –
2 | K([γGlu-C20 diacid])CNTATCATQRLANFLRHSSPNFGAIPSSTNVGSNTY-NH2 (disulfide 2-7; N-terminus assumed; SMILES CC[C@H](C)[C@H](NC(=O)[C@H](C)NC(=O)CNC(=O)[C@H](Cc1ccccc1)NC(=O)[C@H](CC(N)=O)NC(=O)[C@@H]1CCCN1C(=O)[C@H](CO)NC(=O)[C@H](CO)NC(=O)[C@H](Cc1c[nH]cn1)NC(=O)[C@H](CCCNC(=N)N)NC(=O)[C@H](CC(C)C)NC(=O)[C@H](Cc1ccccc1)NC(=O)[C@H](CC(N)=O)NC(=O)[C@H](C)NC(=O)[C@H](CC(C)C)NC(=O)[C@H](CCCNC(=N)N)NC(=O)[C@H](CCC(N)=O)NC(=O)[C@@H](NC(=O)[C@H](C)NC(=O)[C@@H]1CSSC[C@H](NC(=O)[C@@H](N)CCCCNC(=O)CC[C@H](NC(=O)CCCCCCCCCCCCCCCCCCC(=O)O)C(=O)O)C(=O)N[C@@H](CC(N)=O)C(=O)N[C@@H]([C@@H](C)O)C(=O)N[C@@H](C)C(=O)N[C@@H]([C@@H](C)O)C(=O)N1)[C@@H](C)O)C(=O)N1CCC[C@H]1C(=O)N[C@@H](CO)C(=O)N[C@@H](CO)C(=O)N[C@H](C(=O)N[C@@H](CC(N)=O)C(=O)N[C@H](C(=O)NCC(=O)N[C@@H](CO)C(=O)N[C@@H](CC(N)=O)C(=O)N[C@H](C(=O)N[C@@H](Cc1ccc(O)cc1)C(N)=O)[C@@H](C)O)C(C)C)[C@@H](C)O, also called 48; compound 48) [N^ε1-[(4S)-4-carboxy-4-(19-carboxynonadecanoylamino)butanoyl]-[Arg17,Pro21,Pro27]-h-amylin] | – | 443
3 | K([AEEA-γGlu-C20 diacid])RCNTATCATQRLANFLRHSSPNFGAIPSSTNVGSHTY-NH2 (disulfide 3-8; N-terminus assumed; SMILES CC[C@H](C)[C@H](NC(=O)[C@H](C)NC(=O)CNC(=O)[C@H](Cc1ccccc1)NC(=O)[C@H](CC(N)=O)NC(=O)[C@@H]1CCCN1C(=O)[C@H](CO)NC(=O)[C@H](CO)NC(=O)[C@H](Cc1c[nH]cn1)NC(=O)[C@H](CCCNC(=N)N)NC(=O)[C@H](CC(C)C)NC(=O)[C@H](Cc1ccccc1)NC(=O)[C@H](CC(N)=O)NC(=O)[C@H](C)NC(=O)[C@H](CC(C)C)NC(=O)[C@H](CCCNC(=N)N)NC(=O)[C@H](CCC(N)=O)NC(=O)[C@@H](NC(=O)[C@H](C)NC(=O)[C@@H]1CSSC[C@H](NC(=O)[C@H](CCCNC(=N)N)NC(=O)[C@@H](N)CCCCNC(=O)COCCOCCNC(=O)CC[C@H](NC(=O)CCCCCCCCCCCCCCCCCCC(=O)O)C(=O)O)C(=O)N[C@@H](CC(N)=O)C(=O)N[C@@H]([C@@H](C)O)C(=O)N[C@@H](C)C(=O)N[C@@H]([C@@H](C)O)C(=O)N1)[C@@H](C)O)C(=O)N1CCC[C@H]1C(=O)N[C@@H](CO)C(=O)N[C@@H](CO)C(=O)N[C@H](C(=O)N[C@@H](CC(N)=O)C(=O)N[C@H](C(=O)NCC(=O)N[C@@H](CO)C(=O)N[C@@H](Cc1c[nH]cn1)C(=O)N[C@H](C(=O)N[C@@H](Cc1ccc(O)cc1)C(N)=O)[C@@H](C)O)C(C)C)[C@@H](C)O, also called 45; compound 45) | – | 552
4 | K([γGlu-C20 diacid])RCNTATCATQRLANFLRHSSPNFGAIPSSTNVGSHTY-NH2 (disulfide 3-8; N-terminus assumed; SMILES CC[C@H](C)[C@H](NC(=O)[C@H](C)NC(=O)CNC(=O)[C@H](Cc1ccccc1)NC(=O)[C@H](CC(N)=O)NC(=O)[C@@H]1CCCN1C(=O)[C@H](CO)NC(=O)[C@H](CO)NC(=O)[C@H](Cc1c[nH]cn1)NC(=O)[C@H](CCCNC(=N)N)NC(=O)[C@H](CC(C)C)NC(=O)[C@H](Cc1ccccc1)NC(=O)[C@H](CC(N)=O)NC(=O)[C@H](C)NC(=O)[C@H](CC(C)C)NC(=O)[C@H](CCCNC(=N)N)NC(=O)[C@H](CCC(N)=O)NC(=O)[C@@H](NC(=O)[C@H](C)NC(=O)[C@@H]1CSSC[C@H](NC(=O)[C@H](CCCNC(=N)N)NC(=O)[C@@H](N)CCCCNC(=O)CC[C@H](NC(=O)CCCCCCCCCCCCCCCCCCC(=O)O)C(=O)O)C(=O)N[C@@H](CC(N)=O)C(=O)N[C@@H]([C@@H](C)O)C(=O)N[C@@H](C)C(=O)N[C@@H]([C@@H](C)O)C(=O)N1)[C@@H](C)O)C(=O)N1CCC[C@H]1C(=O)N[C@@H](CO)C(=O)N[C@@H](CO)C(=O)N[C@H](C(=O)N[C@@H](CC(N)=O)C(=O)N[C@H](C(=O)NCC(=O)N[C@@H](CO)C(=O)N[C@@H](Cc1c[nH]cn1)C(=O)N[C@H](C(=O)N[C@@H](Cc1ccc(O)cc1)C(N)=O)[C@@H](C)O)C(C)C)[C@@H](C)O, also called 44; compound 44) | – | 275
